Assay results: PMC10635575

How the values were obtained:
[1] = N-glycosylation at N411
[2] = molecular target: CZA97.012 SOSIP.664 trimer, His-tagged, 2G12-affinity- and then SEC-purified (HIV-1 (Clade C, clone CZA97.012)); assay: SPR
[3] = molecular target: CZA97.012 SOSIP.664 trimer (HIV-1, Clade C, clone CZA97.012 (97ZA.012)); assay: SPR
[4] = molecular target: CZA97.012 SOSIP.664 trimer (HIV-1, Clade C, clone CZA97.012 (97ZA.012))
[5] = molecular target: CZA97.012 SOSIP.664 trimer (HIV-1, Clade C, clone CZA97.012 (97ZA.012)); assay: negative-stain electron microscopy; trimer purified by 2G12-, PGT145- or PGT151-affinity chromatography and then SEC, ~0.02 mg/mL, 2% uranyl formate, 2D class averages
[6] = molecular target: CZA97.012 SOSIP.664 trimer (HIV-1, Clade C, clone CZA97.012 (97ZA.012)); assay: cryo-EM structure
[7] = molecular target: CZA97.012 SOSIP.664 trimer (HIV-1, Clade C, clone CZA97.012 (97ZA.012)); remark: listed apart in the source

Q: With “CZA97.012 Env, D411N mutant: D411N (PNGS knock-in) vs parental; neutralization by bNAbs” as the molecule, how does the other [1] read?
A: Its other is “no change”.

Q: Which Kd [2] does the source give for 3BNC117 Fab here?
A: The Kd was 15 nM.

Q: What about the koff [2] of the same molecule?
A: Its koff is 0.00014 s⁻¹.

Q: And the kon [2]?
A: Its kon is 9700 M⁻¹ s⁻¹.

Q: What about the stoichiometry N [2] of the same molecule?
A: The stoichiometry N was 2.7.

Q: And the stoichiometry N [3]?
A: Its stoichiometry N is 2.8.

Q: And the IC50 of neutralization of CZA97.012 pseudovirus (Env on virions) by 3BNC117 IgG, TZM-bl assay [4]?
A: The IC50 of neutralization of CZA97.012 pseudovirus (Env on virions) by 3BNC117 IgG, TZM-bl assay was 0.32 µg/mL.

Q: Which stoichiometry N [5] does the source give for CZA97.012 SOSIP.664 trimer (complex) here?
A: The stoichiometry N was 3.

Q: What about the stoichiometry N [6] of the same molecule?
A: Its stoichiometry N is 3.

Q: Which other [1] does the source give for “CZA97.012 Env, D411N mutant: D411N (PNGS knock-in) vs parental; neutralization by autologous rabbit sera 2082 and 2084” here?
A: The other was “decreases”.

Q: For “CZA97.012 Env, D411N mutant: D411N (PNGS knock-in) vs parental; neutralization by autologous rabbit serum 2086”, which other [1] is on record?
A: The other was “decreases”.

B1: PGT145 (antibody, V domains shown)
VH: QVQLVQSGAEVKKPGSSVKVSCKASGNSFSNHDVHWVRQATGQGLEWMGWMSHEGDKTGLAQKFQGRVTITRDSGASTVYMELRGLTADDTAIYYCLTGSKHRLRDYFLYNEYGPNYEEWGDYLATLDVWGHGTAVTVSS
VL: EVVITQSPLFLPVTPGEAASLSCKCSHSLQHSTGANYLAWYLQRPGQTPRLLIHLATHRASGVPDRFSGSGSGTDFTLKISRVESDDVGTYYCMQGLHSPWTFGQGTKVEIK
Q: Which IC50 of neutralization of CZA97.012 pseudovirus (Env on virions) by PGT145 IgG, TZM-bl assay [7] does the source give for B1 here?
A: Its IC50 of neutralization of CZA97.012 pseudovirus (Env on virions) by PGT145 IgG, TZM-bl assay is 7.6 µg/mL.
